# Molecular target: MBP2-ISEF-N1G1N2-(…)-NVDE1-184-…-FKBP2-GSRS-6His (bacteriophage M13; yeast; human) (UniProt P69168)
# Experiment: cell-based or functional assay
# Sequence of MBP2-ISEF-N1G1N2-(…)-NVDE1-184-…-FKBP2-GSRS-6His (bacteriophage M13; yeast; human) (P69168 19-265, tags or fused parts left off): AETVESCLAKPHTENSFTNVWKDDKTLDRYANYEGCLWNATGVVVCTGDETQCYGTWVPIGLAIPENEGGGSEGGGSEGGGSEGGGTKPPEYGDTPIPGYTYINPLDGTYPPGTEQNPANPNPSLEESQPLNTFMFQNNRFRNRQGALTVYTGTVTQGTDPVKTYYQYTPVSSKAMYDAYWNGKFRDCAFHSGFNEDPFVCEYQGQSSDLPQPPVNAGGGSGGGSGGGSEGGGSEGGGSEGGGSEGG
substance,measurement,value
phage displaying the fusion protein FRB-TS-CVDE390-454-GSGGGS-CTg3p (from UniProt P42345 2021-2113; P17255 390-454),"phages recovering infecting ability counted as colony forming units, with against without rapamycin (10 µM)",100 times

# Source: US20100273669A1
